In assay [1] the target is Native human Albumin Protein (human) (UniProt P02768). In words: SPR (Nicoya OpenSPR), human albumin immobilised on COOH chip, mouse klotho as analyte at 0-40 nM.
In assay [2] the target is canine albumins (canine) (UniProt P49822). In words: method not stated.

As a reminder, the Kd is a measure of binding affinity in units of concentration. A low value points to tighter binding. One may read the koff as the first-order rate constant of dissociation. Low readings indicate a long-lived complex, high ones a short-lived complex. In general, kon refers to the rate constant with which the complex forms. Lower therefore signals slower complex formation.

Positions of bridges follow the written chain, without caps; N, C: chain ends. No end group written: not given here.

Sequence of UniProt P49822 (P49822 25-608 limits assumed): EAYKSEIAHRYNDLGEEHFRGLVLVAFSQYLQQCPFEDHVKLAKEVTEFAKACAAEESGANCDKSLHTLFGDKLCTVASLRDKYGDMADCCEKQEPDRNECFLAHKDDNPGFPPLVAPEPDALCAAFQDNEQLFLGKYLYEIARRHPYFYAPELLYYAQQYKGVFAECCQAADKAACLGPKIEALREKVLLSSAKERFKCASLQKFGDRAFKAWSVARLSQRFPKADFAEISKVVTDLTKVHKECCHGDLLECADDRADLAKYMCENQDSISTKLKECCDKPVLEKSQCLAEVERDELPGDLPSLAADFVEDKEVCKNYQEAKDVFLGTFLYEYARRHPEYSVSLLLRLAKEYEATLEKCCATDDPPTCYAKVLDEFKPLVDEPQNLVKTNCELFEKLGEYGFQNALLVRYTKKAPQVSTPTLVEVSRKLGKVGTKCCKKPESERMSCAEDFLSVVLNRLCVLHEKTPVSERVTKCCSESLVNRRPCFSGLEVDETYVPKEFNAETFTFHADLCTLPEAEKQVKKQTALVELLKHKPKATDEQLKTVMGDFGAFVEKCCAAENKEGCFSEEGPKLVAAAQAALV

Take “Mouse klotho protein (from UniProt O35082 35-982)”: in assay [1], the dissociation constant (Kd) was found to be 7.94 nM, the koff is 0.00681 s⁻¹ and the on-rate (kon) was 858000 M⁻¹ s⁻¹.

B1: alpha Klotho with the albumin binding construct … (SEQ ID NO: 4) attached to the terminal end (peptide, not shown: small tags and cut ends)
peptide: GGSGGSGGSGGRLIEDICLPRWGCLWEDD
modifications: disulfide 18-24 (inferred); also: fused to alpha Klotho, terminus not given here
On to B1, for which the Kd in assay [2] was less than 19 nM.
